Source: patent US20150376264A1
“And” between values parts separate entries of the source, which are not always exact repeats. Equal values may be shown once. Read-outs that look alike come from different tables or passages of the source. Blank lines part the entries; values can stand above or below the substance they belong to.

How the values were obtained:
Assay in all cases: cell-based or functional assay
[1] = molecular target: Leptin receptor
[2] = molecular target: relaxin receptor (LGR7)
[3] = molecular target: relaxin receptor (LGR7); remark: listed apart in the source

EC50 (Baf3-LepR cell proliferation, AlamarBlue) [1]: 0.352 nM | Fluorescent reading (AlamarBlue) at 0.01 pg/ml (6.25E-08 nM) [1]: 2500 and 2520 | Fluorescent reading (AlamarBlue) at 0.1 pg/ml [1]: 1700 | Fluorescent reading (AlamarBlue) at 0.1 pg/ml (6.25E-07 nM) [1]: 2010 | Fluorescent reading (AlamarBlue) at 10 pg/ml [1]: 924 | Fluorescent reading (AlamarBlue) at 10 pg/ml (6.25E-05 nM) [1]: 2110 | Fluorescent reading (AlamarBlue) at 100 pg/ml (6.25E-03 nM) [1]: 725 and 1740 | Fluorescent reading (AlamarBlue) at 1000 pg/ml (0.0625 nM) [1]: 7000 and 5190 | Fluorescent reading (AlamarBlue) at 10000 pg/ml (0.625 nM) [1]: 26000 and 16500 | Fluorescent reading (AlamarBlue) at 100000 pg/ml (6.25 nM) [1]: 29000 and 15300 | Fluorescent reading (AlamarBlue) at 1000000 pg/ml (62.5 nM) [1]: 33500 and 26400 | Fluorescent reading (AlamarBlue) at 10000000 pg/ml (6250 nM) [1]: 38300 and 32400
Substance: human leptin (R&D) (from UniProt P41159 22-167) (ligand)

Fluorescence reading (luciferase assay) at 0.000000481 uM [2]: 1440 and 480 and 560 | Fluorescence reading (luciferase assay) at 0.00000144 uM [2]: 2880 and 2160 and 1280 | Fluorescence reading (luciferase assay) at 0.00000433 uM [2]: 4400 and 2400 | Fluorescence reading (luciferase assay) at 0.000013 uM [2]: 10800 and 8960 and 9840 | Fluorescence reading (luciferase assay) at 0.0000389 uM [2]: 12100 and 7120 and 12800 | Fluorescence reading (luciferase assay) at 0.000117 uM [2]: 18500 and 18200 | Fluorescence reading (luciferase assay) at 0.00035 uM [2]: 21500 and 19100 | Fluorescence reading (luciferase assay) at 0.001051 uM [2]: 29000 and 26800 | Fluorescence reading (luciferase assay) at 0.003153 uM [2]: 23300 and 23700 | Fluorescence reading (luciferase assay) at 0.00035 uM [3]: 14600 | Fluorescence reading (luciferase assay) at 0.003153 uM [3]: 24500 | Fluorescence reading (luciferase assay) at 0.00946 uM [3]: 30200 and 24900 and 28500
Substance: Relaxin-2 (ligand)
